Data from the supplement of paper PMC10567573.

B1: EPB41L3 (parent)
chain: SDYISEFRFAPNHTKELEDKVIEL

Variants of: B1
Assay: protein stability index of a GFP-peptide fusion (GPS, HEK-293T) (PSI 1-6); higher = more stable
Settings: c terminus: a fixed tail appended
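Further: lentivirally expressed fusions sorted by FACS into six bins by GFP to DsRed ratio, PSI derived from sequencing read proportions per bin multiplied by bin number.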

Q: With SDYISEFAFAPNHTKELEDKVIEL [R8A] as the variant, how does the protein stability index read?
A: Its protein stability index is 3.7.

Q: For SDYISEFNFAPNHTKELEDKVIEL [R8N], which protein stability index is on record?
A: The protein stability index was 3.94.

Q: With SDYISEFDFAPNHTKELEDKVIEL [R8D] as the variant, how does the protein stability index read?
A: Its protein stability index is 4.51.

Q: Which protein stability index does the source give for SDYISEFFFAPNHTKELEDKVIEL [R8F] here?
A: Its protein stability index is 2.04.

Q: Which protein stability index does the source give for SDYISEFLFAPNHTKELEDKVIEL [R8L] here?
A: The protein stability index was 3.24.

Q: For SDYISEFCFAPNHTKELEDKVIEL [R8C], which protein stability index is on record?
A: Its protein stability index is 4.05.

Q: For SDYISEFMFAPNHTKELEDKVIEL [R8M], which protein stability index is on record?
A: The protein stability index was 3.49.

Q: For SDYISEFSFAPNHTKELEDKVIEL [R8S], which protein stability index is on record?
A: Its protein stability index is 4.3.

Q: Which protein stability index does the source give for SDYISEFEFAPNHTKELEDKVIEL [R8E] here?
A: Its protein stability index is 4.47.

Q: For SDYISEFYFAPNHTKELEDKVIEL [R8Y], which protein stability index is on record?
A: Its protein stability index is 3.31.

Q: For SDYISEFTFAPNHTKELEDKVIEL [R8T], which protein stability index is on record?
A: The protein stability index was 3.99.

Q: For SDYISEFHFAPNHTKELEDKVIEL [R8H], which protein stability index is on record?
A: The protein stability index was 4.48.

Q: With SDYISEFKFAPNHTKELEDKVIEL [R8K] as the variant, how does the protein stability index read?
A: The protein stability index was 4.26.

Q: With SDYISEFVFAPNHTKELEDKVIEL [R8V] as the variant, how does the protein stability index read?
A: The protein stability index was 3.39.

Q: For SDYISEFPFAPNHTKELEDKVIEL [R8P], which protein stability index is on record?
A: The protein stability index was 4.4.

Q: With SDYISEFIFAPNHTKELEDKVIEL [R8I] as the variant, how does the protein stability index read?
A: Its protein stability index is 3.24.

Q: Which protein stability index does the source give for SDYISEFWFAPNHTKELEDKVIEL [R8W] here?
A: Its protein stability index is 3.17.

Q: Which protein stability index does the source give for SDYISEFQFAPNHTKELEDKVIEL [R8Q] here?
A: Its protein stability index is 4.1.

Q: With SDYISEFGFAPNHTKELEDKVIEL [R8G] as the variant, how does the protein stability index read?
A: Its protein stability index is 4.38.

Q: For SDYISEFRFAPNHTKRLEDKVIEL [E16R], which protein stability index is on record?
A: Its protein stability index is 2.66.

Q: With SDYISEFRFAPNHTKALEDKVIEL [E16A] as the variant, how does the protein stability index read?
A: Its protein stability index is 2.56.

Q: For SDYISEFRFAPNHTKKLEDKVIEL [E16K], which protein stability index is on record?
A: The protein stability index was 1.77.

Q: Which protein stability index does the source give for SDYISEFRFAPNHTKILEDKVIEL [E16I] here?
A: The protein stability index was 2.08.

Q: With SDYISEFRFAPNHTKDLEDKVIEL [E16D] as the variant, how does the protein stability index read?
A: The protein stability index was 1.82.

Q: Which protein stability index does the source give for SDYISEFRFAPNHTKWLEDKVIEL [E16W] here?
A: The protein stability index was 2.07.

Q: For SDYISEFRFAPNHTKGLEDKVIEL [E16G], which protein stability index is on record?
A: Its protein stability index is 1.81.

Q: Which protein stability index does the source give for SDYISEFRFAPNHTKYLEDKVIEL [E16Y] here?
A: The protein stability index was 2.56.

Q: With SDYISEFRFAPNHTKVLEDKVIEL [E16V] as the variant, how does the protein stability index read?
A: Its protein stability index is 1.89.

Q: With SDYISEFRFAPNHTKSLEDKVIEL [E16S] as the variant, how does the protein stability index read?
A: Its protein stability index is 2.42.

Q: For SDYISEFRFAPNHTKFLEDKVIEL [E16F], which protein stability index is on record?
A: The protein stability index was 2.81.

Q: With SDYISEFRFAPNHTKQLEDKVIEL [E16Q] as the variant, how does the protein stability index read?
A: Its protein stability index is 2.3.

Q: Which protein stability index does the source give for SDYISEFRFAPNHTKTLEDKVIEL [E16T] here?
A: The protein stability index was 1.54.

Q: Which protein stability index does the source give for SDYISEFRFAPNHTKPLEDKVIEL [E16P] here?
A: Its protein stability index is 1.57.

Q: For SDYISEFRFAPNHTKHLEDKVIEL [E16H], which protein stability index is on record?
A: Its protein stability index is 2.65.

Q: With SDYISEFRFAPNHTKNLEDKVIEL [E16N] as the variant, how does the protein stability index read?
A: Its protein stability index is 1.76.

Q: Which protein stability index does the source give for SDYISEFRFAPNHTKMLEDKVIEL [E16M] here?
A: Its protein stability index is 3.24.

Q: Which protein stability index does the source give for SDYISEFRFAPNHTKCLEDKVIEL [E16C] here?
A: Its protein stability index is 2.17.

Q: For SDYISEFRFAPNHTKLLEDKVIEL [E16L], which protein stability index is on record?
A: The protein stability index was 2.37.

Q: With SDYISEFRFAPEHTKELEDKVIEL [N12E] as the variant, how does the protein stability index read?
A: The protein stability index was 3.54.

Q: Which protein stability index does the source give for SDYISEFRFAPPHTKELEDKVIEL [N12P] here?
A: The protein stability index was 2.19.

Q: Which protein stability index does the source give for SDYISEFRFAPCHTKELEDKVIEL [N12C] here?
A: Its protein stability index is 1.47.

Q: With SDYISEFRFAPYHTKELEDKVIEL [N12Y] as the variant, how does the protein stability index read?
A: The protein stability index was 2.1.

Q: For SDYISEFRFAPRHTKELEDKVIEL [N12R], which protein stability index is on record?
A: Its protein stability index is 1.43.

Q: Which protein stability index does the source give for SDYISEFRFAPMHTKELEDKVIEL [N12M] here?
A: The protein stability index was 1.89.

Q: For SDYISEFRFAPQHTKELEDKVIEL [N12Q], which protein stability index is on record?
A: The protein stability index was 2.35.

Q: For SDYISEFRFAPAHTKELEDKVIEL [N12A], which protein stability index is on record?
A: The protein stability index was 2.2.

Q: Which protein stability index does the source give for SDYISEFRFAPGHTKELEDKVIEL [N12G] here?
A: The protein stability index was 1.83.

Q: Which protein stability index does the source give for SDYISEFRFAPWHTKELEDKVIEL [N12W] here?
A: Its protein stability index is 1.5.

Q: For SDYISEFRFAPHHTKELEDKVIEL [N12H], which protein stability index is on record?
A: Its protein stability index is 1.95.

Q: Which protein stability index does the source give for SDYISEFRFAPTHTKELEDKVIEL [N12T] here?
A: Its protein stability index is 2.2.

Q: Which protein stability index does the source give for SDYISEFRFAPDHTKELEDKVIEL [N12D] here?
A: Its protein stability index is 3.9.

Q: Which protein stability index does the source give for SDYISEFRFAPVHTKELEDKVIEL [N12V] here?
A: Its protein stability index is 2.23.

Q: With SDYISEFRFAPSHTKELEDKVIEL [N12S] as the variant, how does the protein stability index read?
A: The protein stability index was 2.21.

Q: For SDYISEFRFAPKHTKELEDKVIEL [N12K], which protein stability index is on record?
A: Its protein stability index is 2.18.

Q: With SDYISEFRFAPFHTKELEDKVIEL [N12F] as the variant, how does the protein stability index read?
A: The protein stability index was 1.9.

Q: With SDYISEFRFAPLHTKELEDKVIEL [N12L] as the variant, how does the protein stability index read?
A: The protein stability index was 2.2.

Q: For SDYISEFRFAPIHTKELEDKVIEL [N12I], which protein stability index is on record?
A: The protein stability index was 1.82.

Q: With SDYISEFRFCPNHTKELEDKVIEL [A10C] as the variant, how does the protein stability index read?
A: The protein stability index was 1.56.

Q: For SDYISEFRFDPNHTKELEDKVIEL [A10D], which protein stability index is on record?
A: Its protein stability index is 4.37.

Q: With SDYISEFRFPPNHTKELEDKVIEL [A10P] as the variant, how does the protein stability index read?
A: The protein stability index was 3.96.

Q: Which protein stability index does the source give for SDYISEFRFNPNHTKELEDKVIEL [A10N] here?
A: Its protein stability index is 3.33.

Q: Which protein stability index does the source give for SDYISEFRFTPNHTKELEDKVIEL [A10T] here?
A: The protein stability index was 2.05.

Q: With SDYISEFRFWPNHTKELEDKVIEL [A10W] as the variant, how does the protein stability index read?
A: Its protein stability index is 2.96.

Q: For SDYISEFRFEPNHTKELEDKVIEL [A10E], which protein stability index is on record?
A: The protein stability index was 4.21.

Q: With SDYISEFRFFPNHTKELEDKVIEL [A10F] as the variant, how does the protein stability index read?
A: Its protein stability index is 3.3.

Q: For SDYISEFRFIPNHTKELEDKVIEL [A10I], which protein stability index is on record?
A: The protein stability index was 2.33.

Q: With SDYISEFRFRPNHTKELEDKVIEL [A10R] as the variant, how does the protein stability index read?
A: Its protein stability index is 3.54.

Q: Which protein stability index does the source give for SDYISEFRFGPNHTKELEDKVIEL [A10G] here?
A: The protein stability index was 3.92.

Q: Which protein stability index does the source give for SDYISEFRFMPNHTKELEDKVIEL [A10M] here?
A: Its protein stability index is 3.

Q: With SDYISEFRFQPNHTKELEDKVIEL [A10Q] as the variant, how does the protein stability index read?
A: Its protein stability index is 2.35.

Q: Which protein stability index does the source give for SDYISEFRFLPNHTKELEDKVIEL [A10L] here?
A: Its protein stability index is 3.45.

Q: For SDYISEFRFYPNHTKELEDKVIEL [A10Y], which protein stability index is on record?
A: Its protein stability index is 3.09.

Q: Which protein stability index does the source give for SDYISEFRFKPNHTKELEDKVIEL [A10K] here?
A: Its protein stability index is 3.99.

Q: Which protein stability index does the source give for SDYISEFRFVPNHTKELEDKVIEL [A10V] here?
A: The protein stability index was 1.84.

Q: With SDYISEFRFSPNHTKELEDKVIEL [A10S] as the variant, how does the protein stability index read?
A: Its protein stability index is 2.61.

Q: For SDYISEFRFHPNHTKELEDKVIEL [A10H], which protein stability index is on record?
A: The protein stability index was 1.86.

Q: With SDYISEWRFAPNHTKELEDKVIEL [F7W] as the variant, how does the protein stability index read?
A: Its protein stability index is 2.42.

Q: With SDYISEPRFAPNHTKELEDKVIEL [F7P] as the variant, how does the protein stability index read?
A: The protein stability index was 4.75.

Q: With SDYISEMRFAPNHTKELEDKVIEL [F7M] as the variant, how does the protein stability index read?
A: The protein stability index was 4.

Q: For SDYISERRFAPNHTKELEDKVIEL [F7R], which protein stability index is on record?
A: The protein stability index was 4.4.

Q: For SDYISEQRFAPNHTKELEDKVIEL [F7Q], which protein stability index is on record?
A: The protein stability index was 4.79.

Q: Which protein stability index does the source give for SDYISEVRFAPNHTKELEDKVIEL [F7V] here?
A: The protein stability index was 4.46.

Q: Which protein stability index does the source give for SDYISEKRFAPNHTKELEDKVIEL [F7K] here?
A: The protein stability index was 4.38.

Q: For SDYISEHRFAPNHTKELEDKVIEL [F7H], which protein stability index is on record?
A: The protein stability index was 4.26.

Q: For SDYISENRFAPNHTKELEDKVIEL [F7N], which protein stability index is on record?
A: Its protein stability index is 4.96.

Q: Which protein stability index does the source give for SDYISEIRFAPNHTKELEDKVIEL [F7I] here?
A: Its protein stability index is 3.94.

Q: For SDYISEYRFAPNHTKELEDKVIEL [F7Y], which protein stability index is on record?
A: Its protein stability index is 3.71.

Q: For SDYISESRFAPNHTKELEDKVIEL [F7S], which protein stability index is on record?
A: The protein stability index was 4.12.

Q: Which protein stability index does the source give for SDYISELRFAPNHTKELEDKVIEL [F7L] here?
A: Its protein stability index is 3.6.

Q: Which protein stability index does the source give for SDYISETRFAPNHTKELEDKVIEL [F7T] here?
A: The protein stability index was 4.57.

Q: With SDYISEFRHAPNHTKELEDKVIEL [F9H] as the variant, how does the protein stability index read?
A: Its protein stability index is 4.41.

Q: Which protein stability index does the source give for SDYISEFRCAPNHTKELEDKVIEL [F9C] here?
A: The protein stability index was 3.93.

Q: Which protein stability index does the source give for SDYISEFRKAPNHTKELEDKVIEL [F9K] here?
A: Its protein stability index is 4.29.

Q: For SDYISEFRGAPNHTKELEDKVIEL [F9G], which protein stability index is on record?
A: The protein stability index was 4.6.
